US20110217317A1 (published 2011)

T1: Rhesus D antigen (human, UniProt Q02161 2-417)
T1 construct: whole, on cells; Presented on RhD-positive erythrocytes in all assays; also called RhD; RhD antigen
T1 sequence (looked up): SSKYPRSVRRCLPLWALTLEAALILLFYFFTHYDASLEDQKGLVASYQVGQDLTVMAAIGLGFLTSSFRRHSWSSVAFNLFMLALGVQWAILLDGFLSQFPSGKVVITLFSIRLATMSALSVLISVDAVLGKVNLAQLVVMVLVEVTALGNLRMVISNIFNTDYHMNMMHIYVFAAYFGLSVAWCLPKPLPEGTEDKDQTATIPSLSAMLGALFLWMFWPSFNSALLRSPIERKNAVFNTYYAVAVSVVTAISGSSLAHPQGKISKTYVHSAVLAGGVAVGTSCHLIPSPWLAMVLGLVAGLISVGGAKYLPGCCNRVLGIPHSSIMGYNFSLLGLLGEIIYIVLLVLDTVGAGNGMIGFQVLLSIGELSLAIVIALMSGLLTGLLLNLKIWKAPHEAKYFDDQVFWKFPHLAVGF


Target: T1, Rhesus D antigen
Test: agglutination assay, Fab on RhD(+)/RhD(-) RBC mix
Method: After each round of panning single colonies were picked for analysis of their binding properties to red blood cells in agglutination assays. Briefly, single colonies were inoculated into 2×YT/100 μg/mL carbenicillin/1% glucose and shaken overnight at 37° C. The next day, DeepWell plates were inoculated using 900 μl 2×YT/100 μg/mL carbenicillin/0.1% glucose and 10 μl overnight culture. The plates were shaken for two hours at 37° C., before Fab induction was performed with addition of 300 μl 2×YT/100 μg/mL carbenicillin/0.25 mM IPTG per well. The plate was shaken overnight at 30° C. The following day, the bacteria were pelleted by centrifugation (3200×g, 4° C., 10 minutes), and re-suspended in 100 μl of 0.8 M NaCl, 0.2×PBS, 8 mM EDTA, and incubated for 15 minutes on ice in order to perform a periplasmic extraction of the Fab fragments. The plate was transferred to −20° C. and finally the suspension was thawed and centrifugation was performed for 10 minutes at 4° C. and 3200×g. The periplasmic extract was used in ELISA assays for analysis of Fab content and in agglutination assays to evaluate the binding potential of the individual Fab fragments. The agglutination assay was performed as follows: RhD(−) and RhD(+) RBC were mixed in a 1:1 ratio, and washed 3 times in PBS. After the final wash, the cell mix was re-suspended in 1% BSA in PBS at a density of 1% cells, 50 μl was added to each well of a 96-plate. Periplasmic extracts were added to the wells. As a positive control Rhesogamma P immunoglobulin (Aventis) was used according to the manufacturer's instructions. The plates were incubated for one hour at room temperature with gentle shaking. The cells were washed three times with PBS, before the secondary antibody was added (goat anti-human Fab/FITC conjugate, Sigma F5512) in a 1:100 dilution. The plates were left for agglutination for one hour at room temperature without shaking. Fab fragments positive in the agglutination assay was determined by visual inspection, and recorded by taking a picture. Quantization of the binding activity of the Fab fragments was performed by FACS analysis of the agglutination samples.

Binder	binding result
RhD244.158B10 (Fab, V domains shown, Tested as Fab (periplasmic extract)) VH: QVQLVESGGGVVQPGRSLRLSCAASGFSFSSYGMHWVRQAPGKGLEWVAIIWYDGSNKLYADSVKGRFTISRDNSRNTLYLQMSSVRAEDTAVYYCARDSVRGVSRWGTQKYYAMDVWGQGTTVTVSS VL: DIQMTQSPSSLSASVGDRVIITCRASQSVNRYLNWYQQKPGKAPKLLIYAASSLQGGVPSRFSGSGSGTDFTLTISSLQREDFATYYCQQSYRTRTFGQGTKVEIKR	binds
RhD204.128A03 (Fab, V domains shown, Tested as Fab (periplasmic extract); lambda clone) VH: EVQLVESGGGVVQPGRSLRLSCAASGFSFSNYGMHWVRQAPGKGLEWVAVISYDGSEKYYADSVKGRFTISRDNSKKALYLQMNSLRAEDTAMYYCKNKVGATRRAVVAFDIWGQGTTVTVSS VL: LSSELTQDPAVSVALGQTVRITCQGDSLRSYYANWYQQKPGQAPLSVIYGKNNRPSGIPDRFSGSNSGNTAFLTITGTQAEDEADYYCNSRDSSGNYRELFGGGTKLTVLG	binds
RhD294.119E10 (Fab, V domains shown, Tested as Fab (periplasmic extract)) VH: QVQLVESGGGVVQPGRSLRLSCAASGFSFSNYGMHWVRQAPGKGLEWVAVISYDGSEKYYADSVKGRFTISRDNSKKTLYLQMNSLRAEDTAMYYCKNKVGATRRAVVAVDIWGQGTMVTVSS VL: EIVLTQSPGTLSLSPRERATLSCRANQYVNSNHLAWYQQKPGQAPRLLLYGASRRATGIPDRFSGSGTGTDFTLIISRLEPEDFAVYFCQLYDHSRPMYTFGQGTKLEIKR	binds
RhD205.160B12 (Fab, V domains shown, Tested as Fab (periplasmic extract)) VH: EVQLVETGGGLVKPGGSLRLSCAASGFTFRSYSMNWVRQAPGKGLEWVSSIGSSSTYTYSADSVKGRFTISRDNAKNSLYLQMNSLRAEDTAVYYCARGEPLNYDYIWGGYRFTIHWGQGTLVTVSS VL: DIQLTQSPSFLSASVGDRVTITCRASHGISSYLAWYQQKPGKAPNLLIFPASTLQSGVPSRFSGSGSGTEFTLTISSLRPEDFATYYCQQLNSYSRWAFGQGTKVEVKR	binds
RhD243.109A05 (Fab, V domains shown, Tested as Fab (periplasmic extract)) VH: QVQLVESGGGVVQPGRSLRLSCAASGFTFSTYGMHWVRQAPGKGLEWVAVIWYDGSQKYYVDSVKGRFTISRDNSKNTLYLQMNSLRAEDTAVYYCAREVAVRGVIRYYYGMDVWGQGTTVTVSS VL: DIQLTQSPSSLAASVGDRVIITCRSGQGIRNYLNWYQQKPGKAPKLLIYAASFLQSGVPSRFSGSGSGTDFTLTISSLQPEDFATYNCQQSYSDPWTFGQGTKVEIKR	binds
RhD293.109A09 (Fab, V domains shown, Tested as Fab (periplasmic extract)) VH: EVQLVESGGGVVQPGRSLRLSCAASGFTFNTYGMHWVRQAPGKGLEWVAVIWYDGSNKYYADSVKGRFTISRDNSKNTLYLQMNSLRAEDTAVYYCAREVAVRGVIRYYYAMDVWGQGTTVTVSS VL: not shown	binds
RhD245.164E06 (Fab, V domains shown, Tested as Fab (periplasmic extract)) VH: EVQLVQSGGGVVQPGRSPRLSCAASGFTFSSYGMHWVRQAPGKGLEWVAFIWYDGSNKYYADSVKGRFTISRDNSKNTLYLQMNSLRAEDTAVYYCARDLRNHVFWSGYSTSFDYWGQGTLVTVSS VL: DIQMTQSPSSLSASVGDGITITCRASQSVRSYLNWYQQKPGKAPELLIYAASRLQSGVPSRFSGSGSGTDFTLTISSLQPEDFATYYCQHSYSTPVTFGQGTKVEVKR	binds
RhD159.119B09 (Fab, V domains shown, Tested as Fab (periplasmic extract)) VH: EVQLVETGGGLVQPGGSLRLSCAASGFSFRSYDMNWVRQAPGKGLEWVSYISGRGSTTYYADSVKGRFTISRDNAKNSLYLQMNSLRAEDTAVYYCARDLYGDYDPKSYYYYAMDVWGHGTTVTVSS VL: EIVMTQSPGTLSLSPGERATLSCRASHTVSSGYLAWYQQKPGQAPRLLIYGASNRATGVPDRFGGSGSGTDFTLTISRLEPEDSAVYFCQQYGTSPGVTFGQGTRLEIER	binds

The next lines start with the values.

binding result	Binder
binds	RhD158.119B06 (Fab, V domains shown, Tested as Fab (periplasmic extract)) VH: EVQLVETGGGVVQPGRSLRLSCAASGFSFSNFGFHWIRQSPGKGLEWVAVIWYDGSNRFYADSVKGRFTISRDSSKNMLFLQMDSLRAEDTAVYYCAREISMKVVIRRHYVMDVWGHGTTVTVSS VL: DIQMTQSPSPLSASVGDRVSITCRASRGISNSLAWYQQKPGKVPKLLIYAASTLQSGVPSRFSGGGSGTDFTLTISSLQPEDVATYYCHTYNSAPFAFGPGTKVDIKR
binds	RhD206.160C06 (Fab, V domains shown, Tested as Fab (periplasmic extract)) VH: QVQLVESGGGVVQPGRSLRLSCAASGFTFSSYGMHWVRQAPGKGLEWVAIIWFDGSNKYYADSVKGRFTISRDNSKNTLYLQINSLRAEDTAVYYCAKEHGYYSSSWYRNYYYYAMDVWGQGTTVTVSS VL: DIQMTQSPSSLSASVGDRVTITCRASQSIRRYLNWYQKKPGKAPKLLIYAASSLQSGVPSRFSGSGSGTDFTLTISSLQPEDFATYYCQQSYRTQGLTFGGGTKVEIKR
binds	RhD208.179B11 (Fab, V domains shown, Tested as Fab (periplasmic extract)) VH: EVQLVESGGGVVQPGRSLRLSCAASGFTFRTSAMHWVRQAPGKGLEWVAVIWYDGSNKYYADSVKGRFTISRDNSKNTLYLQMNSLRAEDTAVYYCAREMVSYSSSWYRRYYYYNMDVWGKGTTVTVSS VL: QAVVTQEPSLTVSPGGTVTLTCASSTGSVTSGYYPNWFQQKPGQAPRPLISGTSNKLSWTPARFSGSLLGGKAALTVSGVQPEDEAVYYCLLYYGVPQPVVFGGGTKLTVLG
binds	RhD246.179B10 (Fab, V domains shown, Tested as Fab (periplasmic extract)) VH: EVQLVETGGGVVQPGRSLRLSCAASGFTFSSYGMHWVRQAPGKGLEWVAVIWYDGSNKYYADSVKGRFTISRDNSKNTLYLQMNSLRAEDTAVYYCAREMVSYSSSWYRRYYYYNMDVWGKGTTVTVSS VL: LSSELTQDPAVSVTLGQTVRITCQGDSLRHSYASWYQQKPGQAPILVIYGKNIRPSGIPDRFSGSTSGNTASLTITGAQAEDGGDYYCNSRDTSTDHYVFGDGTRVTVVG
binds	RhD242.181A03 (Fab, V domains shown, Tested as Fab (periplasmic extract)) VH: EVQLVESGGGVVQPGRSLRLSCAASGFTFSNHGMHWVRQAPGKGLEWVAVIWYDGSNKYYADSVKGRFTISRDNSKNTLYLQMNSLRAEDTAVYYCAREMASYSSSWYRRYYYYVMDVWGKGTTVTVSS VL: not shown
binds	RhD241.119B05 (Fab, V domains shown, Tested as Fab (periplasmic extract)) VH: QVQLQESGPGLVKPSETLSLICTVSGGSISSNYWSWIRQPPGKGLEWIGYIYYSGNTNYNPSLKSRVTISLDTSKNQFSLKLRSVTAADTAVYYCAREWRQYGSGIRGSRYYYGMDVWGQGTLVTVSS VL: EIVLTQSPVTLSLSPGERATLSCRASQSVSSGYLAWYQQKPGQAPRLLIYGTSIRATGIPDRFSGSGSGTDFTLTISRLEPEDFAVYYCQQYGSSPLYSFGQGTKVDIKR
binds	RhD239.126F09 (Fab, V domains shown, Tested as Fab (periplasmic extract)) VH: QVQLVESGGGVVQPGTSLRLSCAASGFTFRTYGMHWVRQAPGKGLEWVAYIWYDGSNKYYADSVKGRFTISRDNSKSTLNLQMNSLRAEDTAVYYCAREIASRGYSRYLYYFDSWGQGTLVTVSS VL: DIQLTQSPSSLSASVGDRVTITCRASQSISSYLNWYQQKPGKAPKLLISAASSLQSGVPSRFSGSGSGTDFTLTISSLQREDYATYYCQQSYSTPPYTFGQGTKLEIKR
binds	RhD292.109A02 (Fab, V domains shown, Tested as Fab (periplasmic extract)) VH: QVQLVETGGGVVQPGRSLRLSCAASGFTFSSYGMHWVRQAPGKGLEWVAVIWSDGSNKYYADSVKGRFTISRDNSRNTLYLQMNSLRAEDTAVFYCAREQGGYSSSWYRRYYYYYMDVWGQGTTVTVSS VL: DIQMTQSPSSLSASVGDRVTITCRASQSISSWLNWYQQKPGKAPNLLIFAASTLQSGVPSRFSGSGSGTDFTLTISSLQPEDFATYYCQQSYSSSVYTFGQGTKLEIKR
binds	RhD240.125A09 (Fab, V domains shown, Tested as Fab (periplasmic extract)) VH: QLQLQESGPGLVKPSGTLSLTCAVSGGSMRSSNWWTWVRQPPGKGLEWIGEIHHGGSTNYNPSLQSRVTISVDKSKNRFSLKLSSVTAADTAVYHCARGRSYYDSSGHSFRGLVPFDIWGQGTMVTVSS VL: DIQMTQSPSTLSASVGDRVTITCRASQSISSWLAWYQQKPGKAPKLLVYKTSSLEGGVPSRFSGSGSGTEFSLTIFRLQSDDFATYYCQQYNSFPYTFGQGTKLEFTR
